± gives the half width of the 95% confidence interval.
Experiments:
[1] = folding stability dG unfold (combined trypsin and chymotrypsin); higher = more stable
Method in brief: (§1)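 Mini-proteins designed to be under 80 residues and free of cysteine were carried in a PA-tagged cDNA display construct and digested with trypsin and with chymotrypsin. Each protease was applied at 11 threefold-diluted concentrations, alongside a no-protease condition, before sequencing. K50 came from Bayesian fitting of the sequencing counts, and unfolding free energy was obtained by comparing it with a sequence-predicted unfolded-state K50 and a shared folded-state K50, for each protease separately or for both together. Designs were retained only if their AlphaFold2 dimer inter-PAE exceeded 15.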

[2] = folding stability dG unfold from chymotrypsin proteolysis; higher = more stable
Method in brief: as §1

[3] = folding stability dG unfold from trypsin proteolysis; higher = more stable
Method in brief: as §1

Sequence	folding stability dG unfold [1] [kcal/mol]	folding stability dG unfold [2] [kcal/mol]	folding stability dG unfold [3] [kcal/mol]
SGQHKVTVPIEIRIYPPDPDGKWKPIGEIPIPVTYEYPKDQPEKAERQAREQVIDEIKKFAKKNGYRIYISA [r9_356_TrROS]	0.361 ± 0.2	0.287 ± 0.36	0.452 ± 0.15
SGSFASVTEDSLPDGGGYIVATEVSTGASRVYPPGTVVAEPAPADSTLVETLYDPATGEPLSTTTRTVAASA [r9_209_JUSTAS]	-0.0457 ± 0.11	0.00381 ± 0.13	-0.712 ± 0.2
SGSMTIKLTPDSPVEDVVKFIAENPNVNVTLLMPPEMSEELREKFEKALKEANVPKSQKVTFEVVPPGEESA [r9_670_JUSTAS]	3.55 ± 0.15	3.87 ± 0.099	2.6 ± 0.14
SGSPSDDIVTTPLPGPSERATFPDGSSISRSPAGVTTTTSPTSITTTTTTPSATVTSTTTSLPPPSPSAPSA [r9_901_JUSTAS]	-0.0591 ± 0.07	0.184 ± 0.015	-0.696 ± 0.034
SGSSMGPPDVKERLIDIPSSELSPEVLEEIIEEAIKEGYSVVTINIPEGKYITIELKDGKVTKITEKSLESA [r9_905_JUSTAS]	1.76 ± 0.088	1.75 ± 0.047	1.84 ± 0.035
SGSTTLKTTTIPEGPLTVETTISPDGVVTGTIYDPEGKKIADYTMTYTWTTLPNGEKRLETVTVTINLGLSA [r9_434_JUSTAS]	2.35 ± 0.07	2.55 ± 0.063	1.9 ± 0.05
SGSVELSFDPSKPYKVKITATAPKDGTPYEVSGTTDPATGTITLPIRRPGSGEPLPPEELEFEIEVSPPESA [r9_928_JUSTAS]	0.167 ± 0.066	0.342 ± 0.12	-0.244 ± 0.071
SGYVVRIYRPNEKGEPVKIVLPDEEAEELYKELVDEEMSVEEFAERLKKLFPDAKVEVRKAEDIPPEELLSA [r9_1085_TrMRF]	2 ± 0.058	1.85 ± 0.023	2.13 ± 0.07
SIFRIRMPGNREFRIFIPPDGMVNVSMPNGKKHTHPFKDKEDAKEIADVLSKHFPNMPVEIEPIPPDDIKSA [r9_1206_TrROS]	0.793 ± 0.37	0.166 ± 0.91	1.26 ± 0.11
SIKIERDGDKIKITFKVPGPFRIMIFNNDEIQETTIPPGKPVKIEIDIPKGNFYIMIYFPGKPLAQIPFKSA [r9_411_TrROS]	2.19 ± 0.31	1.96 ± 0.17	2.27 ± 0.19
SIKIQVHMWPDGFYVIKVRFPGNGKPIHIPFPPNETAEEQVDKIANNLWKQHGFEPVEVDIYPMPKPLPPSA [r9_1205_TrROS]	2.15 ± 0.12	2.25 ± 0.034	1.81 ± 0.088
SIMIMIPPGEEIEITIEKLKDVEVMIFNNGKVREQRVPPGEEIKFELPPGAKGFMIMIKGPNGKAQMITLSA [r9_143_TrROS]	2.66 ± 0.4	2.75 ± 0.081	2.74 ± 0.25
SIRPGQRIDSLEEVKEIAHRIAEEIQKEHGHPYKVTVNVEYYPEEDGRWYVKAKWYMPNNGKPIREITIMSA [r9_794_TrROS]	1.71 ± 0.19	1.88 ± 0.1	1.53 ± 0.059
SKAEILEAPAVFNPESESATLYYLVKVTFPDPSVKLIPGVFPADYTPEQAAEEILARFKSLGLESATITPSA [r9_1203_TrMRF]	1.57 ± 0.19	1.46 ± 0.12	1.5 ± 0.15
SKATVLPNGEVVVTAEATFTLPDGTKVTVRVEVRIGPDGTLRPGVTVTVEPVPPPEKPLNIDFDPVTLPKSA [r9_1168_TrMRF]	2.67 ± 0.33	2.91 ± 0.21	0.969 ± 0.13
SKEEKPPEVKTFKVKKIEFDPETKKITVEVDGKKLTLELKPGQEVEIFKDGKEIRVVRLAPPPPEKKEKKSA [r9_551_TrROS_Hall]	> 6	2.95 ± 0.27	1.94 ± 0.36
SKEKYKKPIKFTVKIEEGPVTENGEKYIKIEITYPGGYTATIIITPKKIEIKSNVPNPEKVKELVKKLVKSA [r9_662_TrMRF]	2.5 ± 0.28	2.81 ± 0.14	1.62 ± 0.15
SKEVKVKVKVVAPFYNKTKPFPLNIEVEVTVSSSNPELSPEKLTPENLAKIAAEKAREILLKLGIPEEFLSA [r9_516_TrMRF]	2.86 ± 0.34	3.09 ± 0.14	2.63 ± 0.14
SKGKKYELIVLLFKVEDPEKYPVEKKVSVPKEFIDFLKKKGFKIIEIKTRVIPSSDGSVYVEHVALVEVDSA [r9_465_TrMRF]	3.82 ± 0.13	4.16 ± 0.13	2.62 ± 0.12
SKIKKIKIVKVKPGEEITTPDGRKIKPGDIVIVDEKTNKVYSAEEIKKLLKELEEKLKKLPKKPKPKKKKSA [r9_517_TrROS_Hall]	1.49 ± 0.17	1.78 ± 0.089	0.814 ± 0.07
SKKIIKIKIEVIFPKTKKKIEIEIEMTEEEAKKLAEELKKKFKDEKVEVKIVKIEPLPPKKKKKVSKKKKSA [r9_14_TrROS_Hall]	1.83 ± 0.2	1.99 ± 0.1	1.52 ± 0.099

Sequence	folding stability dG unfold [1] [kcal/mol]	folding stability dG unfold [2] [kcal/mol]	folding stability dG unfold [3] [kcal/mol]
SKKITIEIELYRNPETKKLPLKLKAYNENGEPLGELEIEFTESPEEALEKALALAKELAESNDAEITFGLSA [r9_31_TrMRF]	1.76 ± 0.057	1.92 ± 0.036	1.38 ± 0.041
SKKIVINLENIPEENREKVLENVLKAIKEAKEKNPEKKVKITILVSPEQKEEVKKLKEELEKAGLEVEEISA [r9_1202_TrROS_Hall]	2.73 ± 0.36	2.31 ± 0.089	3.81 ± 0.31
SKKKITIEVEVEKDEETGEYTVRIRITVDGKEIEIEIKAKTPEEAKEKAKKLAEELLKKYPDKVKIEIKPSA [r9_1148_TrROS_Hall]	2.21 ± 0.15	1.98 ± 0.029	2.48 ± 0.11
SKKKKIIKIDIKPEDIEKGIKAVREAIKKAKEAEPDTEVIIDFHFESDYPEKVKEIEDLFKKENIPLKIGSA [r9_1202_TrMRF]	1.31 ± 0.18	0.883 ± 0.048	1.39 ± 0.11
SKKKKKLTAEEIAKKLEEKLKEEFGIEEIKITKIEFDKETKEITITMEITYKKKKNEKITITKKIKVEDLSA [r9_1002_TrROS_Hall]	2.28 ± 0.63	2.5 ± 0.12	2.08 ± 0.24
SKKKVKTETVTLKIVNEKTGEEVELTLEFYEDGTVVKVTFPDGTTKEIKVGKTLEELLSLPPNAKIELIPSA [r9_781_TrROS_Hall]	1.56 ± 0.11	2 ± 0.11	0.315 ± 0.12
SKKMTAEELLKKFPNVVFIRLKNGKIIAFNKETKEIYIFNLKTGKVEKIKVTPEELEKLAKENNFEIYPVSA [r9_721_TrROS_Hall]	3.12 ± 0.12	3.32 ± 0.064	2.48 ± 0.078
SKKPKVEIEIEIPSVISATPIPNTDEVLVNVPYRVKIKVIGEGPPKEVEVDLPGIMLVSDFIDELKKLLGSA [r9_656_TrMRF]	1.74 ± 0.098	1.74 ± 0.046	1.72 ± 0.072
SKKVEVKEIEIKLADGSKVKAKIVKLPDGTYRIFVEFPDGRVAVFEIDVNGKIVKVKPLEVFSLEELKKKSA [r9_1075_TrROS_Hall]	1.17 ± 0.22	0.836 ± 0.47	1.07 ± 0.12
SKKVLFIEAKSEEELKAAVKALLDAGYDEIVVSSPEAAKALKELLPDVKVTLVEVKPEKKLSEEEKKKLKSA [r9_639_TrROS_Hall]	1.05 ± 0.26	1.42 ± 0.096	0.505 ± 0.33
SKKYKIKKVTIFVYKNGKVEEKEVDLTVDELKALEDAGFEVVKVEEKDGYITVVIKKDGYLVIIKIEIEPSA [r9_5_TrROS_Hall]	3.52 ± 0.37	3.9 ± 0.2	2.73 ± 0.18
SKLKPGDIVKLENGEYYRIKKIEISYDKETKEFTIKAEIEPAPPVETETETKTNADGSTETVTKTKVELPSA [r9_914_TrROS_Hall]	1.95 ± 0.042	2.366 ± 0.021	0.701 ± 0.061
SKMKIKIEVEKVEDGYLKITITAESKEEAEKAIKELAKKLFGIEEVKVEYDKETKKITVEIIIRPPGEKVSA [r9_1120_TrROS_Hall]	2.95 ± 0.35	3.61 ± 0.18	2 ± 0.17
SKPMSPRDQLREIADDIAEKLNEKNGKPYKVRVEFEYPNMPFEIEIPPEAPIEDIMDHFPGWKIKVEIEPSA [r9_513_TrROS]	0.0339 ± 0.52	0.0344 ± 0.32	0.00988 ± 0.15
SKTIEIEIRVGGELYRIKIKVKRKGEPEEEIELTVPAGMSIEEIAARLKELYPDLKVEIVEIERLPPPEPSA [r9_364_TrROS_Hall]	3.86 ± 0.082	4.17 ± 0.11	2.98 ± 0.072
SKTIMIPANMPIDFIRKIARNAAKNGPPVKITIMIPDNPKIKEWLEEAGFPVEIERNKENNMQMITIEVPSA [r9_759_TrROS]	1.91 ± 0.07	1.95 ± 0.028	1.8 ± 0.029
SKTLTLEVEVPEGPVRIVVEASDGSRLEAEVPADEKVTFTIPIPPDIPEETKVTVRVYNPETGEVTELEASA [r9_275_TrMRF]	0.789 ± 0.066	1.11 ± 0.069	0.353 ± 0.063
SKTVIIEVPAKDLDKIKELIKKLKPGQKVKIVFKDANGKLITVTIEVKPAPPPKISLEELSEEQRKALEKSA [r9_1103_TrROS_Hall]	1.79 ± 0.28	1.89 ± 0.23	1.53 ± 0.081
SKVEIEVERLPDGTLLVRATAEIPGIPGEKIELAVLVRLPAPERVEVRLLAAPPVETVTETRTYSEEEKKSA [r9_1009_TrROS_Hall]	1.46 ± 0.17	1.52 ± 0.11	1.27 ± 0.12
SKVKVYIIKKDKVIPEIELDVSSVEEAVEKVLEYISKLPKNTPYLVRIEVEKYDPATGKKSYGTLLLPVGSA [r9_245_TrMRF]	4.05 ± 0.1	4.53 ± 0.095	2.76 ± 0.048
SKVTIYFPNMPPEEIIDAIRKNPGKPVEIWMMPNNPDRFKNWLQDAKIEVEPQPNPDGQPWVKMEIEVPDSA [r9_1138_TrROS]	0.794 ± 0.078	0.969 ± 0.095	0.571 ± 0.035

From the supplement of paper PMC12764529
